Results on two molecules are retold here after PMC7336453, “Inhibition of multiple defense responsive pathways by CaWRKY70 transcription factor promotes susceptibility in chickpea under Fusarium oxysporum stress condition”.

The target in data set [1] is T1, His6-CaWRKY40 (Cicer arietinum, UniProt A0A1S2YMJ3 1-315).
T1 sequence: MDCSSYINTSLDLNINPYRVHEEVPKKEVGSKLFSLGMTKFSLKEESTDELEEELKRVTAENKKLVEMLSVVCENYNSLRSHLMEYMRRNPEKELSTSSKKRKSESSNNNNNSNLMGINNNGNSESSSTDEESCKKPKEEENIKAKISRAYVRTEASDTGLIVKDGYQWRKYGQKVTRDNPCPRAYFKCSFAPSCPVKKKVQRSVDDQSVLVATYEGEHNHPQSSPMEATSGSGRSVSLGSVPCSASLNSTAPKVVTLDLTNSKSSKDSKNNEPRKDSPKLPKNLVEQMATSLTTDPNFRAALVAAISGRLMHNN
Kind of data set: EMSA; 200 ng protein; competed by 50 molar excess cold probe; 20 mM HEPES pH 7.5, 100 mM KCl, 0.2 mM EDTA, 1 mM DTT, 2 mM MgCl2, 1 ug poly dI-dC; 10 ng probe, 100-200 ng protein; 30 min room temperature; 5% PAGE 0.5x TBE at 4 C. As to conditions: protein: recombinant; tags: 6xHis (pET28a); label: labelled (32P).

Data set [2] deals with T1, His6-CaWRKY40. Kind of data set: EMSA; 200 ng protein; competed by 20 molar excess cold probe; 20 mM HEPES pH 7.5, 100 mM KCl, 0.2 mM EDTA, 1 mM DTT, 2 mM MgCl2, 1 ug poly dI-dC; 10 ng probe, 100-200 ng protein; 30 min room temperature; 5% PAGE 0.5x TBE at 4 C. As to conditions: protein: recombinant; tags: 6xHis (pET28a); label: labelled (32P).

B1: pCaMPK9 W-box 2 (dsDNA)
DNA 1: TTAAAATTATTTGTCATCTAAAAGAATCA
DNA 2: TGATTCTTTTAGATGACAAATAATTTTAA
Take B1: the binding result with His6-CaWRKY40 [1] is on record as “binds”.

B2: pCaMPK9 W-box 1 (dsDNA)
DNA 1: ATTGGTTCAGTTTTGTAGTCAACAAAATCT
DNA 2: AGATTTTGTTGACTACAAAACTGAACCAAT
Regarding B2, in the data set with His6-CaWRKY40 [2], the binding result was “binds”.
